The record followed here is the supplement of paper PMC6755084.

The test system of the series is F1*sub RNA substrate (template-directed ligation). The series can be described thus: fraction ligated after 30 min (ligated reads / total reads); higher = more ligase activity; sequences stand for … in GAGACCGCAACTGAAAAGTTGT…AGTTCTGCACGTAGAAGCAAAAGGC
To be noted: 42 °C. The method in brief:
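Oligo-pool templates underwent PCR amplification, T7 transcription and gel purification to yield ribozyme variants. Gel-separated ligated and unligated bands were converted to complementary DNA with barcoded primers and sequenced on a MiSeq, keeping core bases of quality ≥20. The ratio of ligated reads to total reads gave the fraction ligated for every variant.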
On to TATCTTGTCGTAAACACTTTGGATGGGTTGA [3d746], for which the fraction ligated stood at 0.76.

TATCTTGTCGTAAGAACTTTGGATGGGTTGA [3d748] came in with a fraction ligated of 0.841.

The sequence TATCTTGTCGTAAGACACTTGGATGGGTTGA [3d751] gave a fraction ligated of 0.776.

For TATCTTGTCGTAAGACACTTTGATGGGTTGA [3d752], the fraction ligated turned out to be 0.763.

The sequence TATCTTGTCGTAAGACACTTTGGAGGGTTGA [3d754] returned a fraction ligated of 0.0612.

With TATCTTGTCGTAAGACACTTTGGATGGGTTA [3d756], the fraction ligated amounted to 0.722.

With TATCTTGTCGTAAGACACTTTGGATGGGTTG [3d757], the fraction ligated stood at 0.779.

TATCTTGTCGTAAGACACTTTGGATGGGTTGA [2d69] returned a fraction ligated of 0.791.

TATCTTGTCGTAAGACACTTTGGATGGTTGA [3d755] came in with a fraction ligated of 0.155.

Take TATCTTGTCGTAAGACACTTTGGTGGGTTGA [3d753]: the fraction ligated came out at 0.563.

In turn, TATCTTGTCGTAAGACATTTGGATGGGTTGA [3d750] registered a fraction ligated of 0.806.

Consider TATCTTGTCGTAAGACCTTTGGATGGGTTGA [3d749], for which the fraction ligated turned out to be 0.757.

The sequence TATCTTGTCGTAAGCACTTTGGATGGGTTGA [3d747] showed a fraction ligated of 0.743.

Take TATCTTGTCGTAGACACTTTGGATGGGTTGA [3d745]: the fraction ligated came to 0.819.

TATCTTGTCTAAGACACTTTGGATGGGTTGA [3d743] came in with a fraction ligated of 0.742.

With TATCTTGTGTAAGACACTTTGGATGGGTTGA [3d742], the fraction ligated stood at 0.867.

In turn, TATCTTTCGTAAGACACTTTGGATGGGTTGA [3d740] showed a fraction ligated of 0.837.

TATTTGTCGTAAGACACTTTGGATGGGTTGA [3d738] yielded a fraction ligated of 0.762.

Regarding TCACTGTCGTAAGACACTTTGGATGGGTTGA [3d5], the fraction ligated amounted to 0.621.

Regarding TCACTTGCGTAAGACACTTTGGATGGGTTGA [3d7], the fraction ligated was determined as 0.493.

Consider TCACTTGTCGAAGACACTTTGGATGGGTTGA [3d10], for which the fraction ligated came out at 0.748.

As for TCACTTGTCGTAAACACTTTGGATGGGTTGA [3d12], the fraction ligated worked out at 0.444.

Sequence TCACTTGTCGTAAGAACTTTGGATGGGTTGA [3d14] registered a fraction ligated of 0.399.

As to TCACTTGTCGTAAGACACTTGGATGGGTTGA [3d17], the fraction ligated was 0.419.

TCACTTGTCGTAAGACACTTTGATGGGTTGA [3d18] returned a fraction ligated of 0.183.

TCACTTGTCGTAAGACACTTTGGAGGGTTGA [3d20] returned a fraction ligated of 0.333.

TCACTTGTCGTAAGACACTTTGGATGGGTTA [3d22] came in with a fraction ligated of 0.427.

Sequence TCACTTGTCGTAAGACACTTTGGATGGGTTG [3d23] came in with a fraction ligated of 0.797.

On to TCACTTGTCGTAAGACACTTTGGATGGGTTGA [2d1], for which the fraction ligated amounted to 0.796.

TCACTTGTCGTAAGACACTTTGGATGGTTGA [3d21] gave a fraction ligated of 0.709.

The sequence TCACTTGTCGTAAGACACTTTGGTGGGTTGA [3d19] yielded a fraction ligated of 0.0723.

TCACTTGTCGTAAGACATTTGGATGGGTTGA [3d16]: the fraction ligated was determined as 0.782.

TCACTTGTCGTAAGACCTTTGGATGGGTTGA [3d15]: the fraction ligated came to 0.769.

Take TCACTTGTCGTAAGCACTTTGGATGGGTTGA [3d13]: the fraction ligated was determined as 0.608.

Consider TCACTTGTCGTAGACACTTTGGATGGGTTGA [3d11], for which the fraction ligated was determined as 0.765.

As for TCACTTGTCTAAGACACTTTGGATGGGTTGA [3d9], the fraction ligated was 0.768.

For the sequence TCACTTGTGTAAGACACTTTGGATGGGTTGA [3d8], the fraction ligated came to 0.662.

Turning to TCACTTTCGTAAGACACTTTGGATGGGTTGA [3d6], the fraction ligated is 0.145.

Sequence TCATTGTCGTAAGACACTTTGGATGGGTTGA [3d4] gave a fraction ligated of 0.164.

In the case of TCCTTGTCGTAAGACACTTTGGATGGGTTGA [3d3], the fraction ligated was determined as 0.687.

TTACTGTCGTAAGACACTTTGGATGGGTTGA [3d279] returned a fraction ligated of 0.226.

As for TTACTTGCGTAAGACACTTTGGATGGGTTGA [3d281], the fraction ligated amounted to 0.0196.

Sequence TTACTTGTCGAAGACACTTTGGATGGGTTGA [3d284] returned a fraction ligated of 0.131.

On to TTACTTGTCGTAAACACTTTGGATGGGTTGA [3d286], for which the fraction ligated came out at 0.00498.

As to TTACTTGTCGTAAGAACTTTGGATGGGTTGA [3d288], the fraction ligated worked out at 0.0626.

With TTACTTGTCGTAAGACACTTGGATGGGTTGA [3d291], the fraction ligated was 0.305.

On to TTACTTGTCGTAAGACACTTTGATGGGTTGA [3d292], for which the fraction ligated came out at 0.0869.

The sequence TTACTTGTCGTAAGACACTTTGGAGGGTTGA [3d294] showed a fraction ligated of 0.125.

The sequence TTACTTGTCGTAAGACACTTTGGATGGGTTA [3d296] returned a fraction ligated of 0.0531.

TTACTTGTCGTAAGACACTTTGGATGGGTTG [3d297] returned a fraction ligated of 0.299.

On to TTACTTGTCGTAAGACACTTTGGATGGGTTGA [2d25], for which the fraction ligated amounted to 0.419.

Regarding TTACTTGTCGTAAGACACTTTGGATGGTTGA [3d295], the fraction ligated was 0.323.

On to TTACTTGTCGTAAGACACTTTGGTGGGTTGA [3d293], for which the fraction ligated was 0.031.

Take TTACTTGTCGTAAGACATTTGGATGGGTTGA [3d290]: the fraction ligated worked out at 0.517.

Sequence TTACTTGTCGTAAGACCTTTGGATGGGTTGA [3d289] gave a fraction ligated of 0.229.

Consider TTACTTGTCGTAAGCACTTTGGATGGGTTGA [3d287], for which the fraction ligated came to 0.00788.

TTACTTGTCGTAGACACTTTGGATGGGTTGA [3d285] showed a fraction ligated of 0.00592.

As to TTACTTGTCTAAGACACTTTGGATGGGTTGA [3d283], the fraction ligated worked out at 0.147.

In the case of TTACTTGTGTAAGACACTTTGGATGGGTTGA [3d282], the fraction ligated stood at 0.207.

In turn, TTACTTTCGTAAGACACTTTGGATGGGTTGA [3d280] yielded a fraction ligated of 0.0128.

The sequence TTATTGTCGTAAGACACTTTGGATGGGTTGA [3d278] came in with a fraction ligated of 0.076.

TTCACGTCGTAAGACACTTTGGATGGGTTGA [3d336] registered a fraction ligated of 0.658.

TTCACTGCGTAAGACACTTTGGATGGGTTGA [3d338] yielded a fraction ligated of 0.782.

Take TTCACTGTCGAAGACACTTTGGATGGGTTGA [3d341]: the fraction ligated worked out at 0.77.

Take TTCACTGTCGTAAACACTTTGGATGGGTTGA [3d343]: the fraction ligated turned out to be 0.8.

As for TTCACTGTCGTAAGAACTTTGGATGGGTTGA [3d345], the fraction ligated came out at 0.788.

TTCACTGTCGTAAGACACTTGGATGGGTTGA [3d348] showed a fraction ligated of 0.762.

Regarding TTCACTGTCGTAAGACACTTTGATGGGTTGA [3d349], the fraction ligated turned out to be 0.653.

For the sequence TTCACTGTCGTAAGACACTTTGGAGGGTTGA [3d351], the fraction ligated was 0.327.

With TTCACTGTCGTAAGACACTTTGGATGGGTTA [3d353], the fraction ligated amounted to 0.195.

Consider TTCACTGTCGTAAGACACTTTGGATGGGTTG [3d354], for which the fraction ligated was found to be 0.726.

In turn, TTCACTGTCGTAAGACACTTTGGATGGGTTGA [2d28] displayed a fraction ligated of 0.795.

TTCACTGTCGTAAGACACTTTGGATGGTTGA [3d352] came in with a fraction ligated of 0.498.
